Positions count from the first letter of the chain named.

Common to all, as to assay type: biochemical
Assay [1] can be described thus: Aminoacylation reaction, simplified Lloyd's method, inorganic phosphate detected with Biomol green. The conditions noted are these: Table 3; tyrosine 200 μM; 37° C. for 4 min. Also on record: key: ***: the reaction could be detected strongly at 25 nM; **: strongly at 250 nM; *: weakly at 250 nM; the activity is high in the order of *** > ** > * > —. The procedure:
(§1) In the first method, Lloyd's method (Nucleic Acids Research, 23:2886-2892, 1995) where inorganic phosphate produced by pyrophosphatase-drived hydrolysis of pyrophosphate which was one of the reaction products of the aminoacylation reactions was quantified was simplified, and the inorganic phosphate was detected using Biomol green (Funakoshi) to carry out the measurement of the aminoacylation reaction.
(§2) Amino acid concentrations were 200 μM and 1 mM for tyrosine and 3-iodotyrosine, respectively.
(§3) The method where the aminoacylation reaction is measured by quantifying inorganic phosphate produced by pyrophosphatase-drived hydrolysis of pyrophosphate which is one of reaction products of the aminoacylation has been described by Lloyd et al. (Nucleic Acids Research, 23:2886-2892, 1995). In one method of the invention, this method was simplified and the aminoacylation reaction was measured by the detection of inorganic phosphate using Biomol green (Funakoshi). […] To stop the reaction, 0.1 ml of Bio mol green was added. Absorbance of its supernatant was measured at 630 nm.

The nature of assay [2]: Aminoacylation activity by Lloyd's method (release of pyrophosphates). The conditions noted are these: for relative tyrosine analogue to tyrosine ratio: 3-iodotyrosine versus tyrosine, from Table 4; for Initial velocity of release of pyrophosphates, 3-iodotyrosine / Initial velocity of release of pyrophosphates, Tyrosine: at 37° C.; for Initial velocity of release of pyrophosphates, 3-iodotyrosine: 200 μM 3-iodotyrosine; for Initial velocity of release of pyrophosphates, Tyrosine: 200 μM tyrosine. The protocol: In the second method, Lloyd's method (Nucleic Acids Research, 23:2886-2892, 1995) was carried out without alteration.
In the second method, the activity was assayed by Lloyd's method (Nucleic Acids Research, 23:2886-2892, 1995). Each enzyme obtained was incubated with 0.4 ml of the buffer B containing 1 mM ATP (Seikagaku Corporation), 100 μM purified crude tyrosyl-tRNA, 200 μM tyrosine or 3-iodotyrosine at 37° C. for 6 min. The aminoacylation activity was represented as concentrations of released phosphate per min.

Assay [3] in a line: Aminoacylation reaction, simplified Lloyd's method, inorganic phosphate detected with Biomol green. Also on record: key: ***: the reaction could be detected strongly at 25 nM; **: strongly at 250 nM; *: weakly at 250 nM; the activity is high in the order of *** > ** > * > —. The conditions noted are these: Table 3; 3-iodotyrosine 1 mM; 37° C. for 4 min. The procedure:
as §1, §2
(§4) The method where the aminoacylation reaction is measured by quantifying inorganic phosphate produced by pyrophosphatase-drived hydrolysis of pyrophosphate which is one of reaction products of the aminoacylation has been described by Lloyd et al. (Nucleic Acids Research, 23:2886-2892, 1995). In one method of the invention, this method was simplified and the aminoacylation reaction was measured by the detection of inorganic phosphate using Biomol green (Funakoshi). Each enzyme obtained was incubated with 0.05 ml of the buffer B containing 1 mM ATP (Seikagaku Corporation), 30 μM purified crude tyrosyl-tRNA, and 100 μM tyrosine or 0.5 mM 3-iodotyrosine at 37° C. for one hour. To stop the reaction, 0.1 ml of Bio mol green was added. Absorbance of its supernatant was measured at 630 nm.

Assay in assay [4]: as above
Also on record: key: ***: the aminoacylation reaction was detected by a microplate reader in the reaction at enzyme concentrations of 50 nM; **: 500 nM; *: 5 μM; the activity is high in the order of *** > ** > * > —. The conditions noted are these: Table 2; 3-iodotyrosine 1 mM; 37° C. for 4 min. The procedure:
as §1, §2, §4

Assay in assay [5]: as above
Further details: key: ***: the aminoacylation reaction was detected by a microplate reader in the reaction at enzyme concentrations of 50 nM; **: 500 nM; *: 5 μM; the activity is high in the order of *** > ** > * > —. The conditions noted are these: Table 2; tyrosine 200 μM; 37° C. for 4 min. The procedure: as §1, §2, §3

B1: VS: E. coli TyrRS double variant: position 37 Valine, position 195 Serine (protein, UniProt P0AGJ9 2-424, looked up, variant Y37V Q195S)
Tyrosine--tRNA ligase: ASSNLIKQLQERGLVAQVTDEEALAERLAQGPIALVCGFDPTADSLHLGHLVPLLCLKRFQQAGHKPVALVGGATGLIGDPSFKAAERKLNTEETVQEWVDKIRKQVAPFLDFDCGENSAIAANNYDWFGNMNVLTFLRDIGKHFSVNQMINKEAVKQRLNREDQGISFTEFSYNLLQGYDFACLNKQYGVVLSIGGSDQWGNITSGIDLTRRLHQNQVFGLTVPLITKADGTKFGKTEGGAVWLDPKKTSPYKFYQFWINTADADVYRFLKFFTFMSIEEINALEEEDKNSGKAPRAQYVLAEQVTRLVHGEEGLQAAKRITECLFSGSLSALSEADFEQLAQDGVPMVEMEKGADLMQALVDSELQPSRGQARKTIASNAITINGEKQSDPEYFFKEEDRLFGRFTLLRRGKKNYCLICWK
On to B1, for which, in assay [1], the “Aminoacylation activity, Tyrosine” value was “**”. In assay [2], the “relative tyrosine analogue to tyrosine ratio” value is “inferior to VC”; the “Initial velocity of release of pyrophosphates, 3-iodotyrosine” value (“Initial velocity … 3-iodotyrosine” below) stood at 18 nM PPi/min/nM enzyme; the “Initial velocity of release of pyrophosphates, Tyrosine” value is reported as 19 nM PPi/min/nM enzyme. The “Aminoacylation activity, 3-iodotyrosine” value in assay [3] is “**”.

B2: AC: E. coli TyrRS double variant: position 37 Alanine, position 195 Cysteine (protein, UniProt P0AGJ9 2-424, looked up, variant Y37A Q195C)
Tyrosine--tRNA ligase: B1 Tyrosine--tRNA ligase with V36A, S194C
In the case of B2, the “Aminoacylation activity, Tyrosine” value in assay [1] is on record as “*”. Further, in assay [2], the “relative tyrosine analogue to tyrosine ratio” value is recorded as “inferior to VC”; the “Initial velocity … 3-iodotyrosine” value was found to be 3.1 nM PPi/min/nM enzyme; the “Initial velocity of release of pyrophosphates, Tyrosine” value stood at 1.0 nM PPi/min/nM enzyme. In addition, the “Aminoacylation activity, 3-iodotyrosine” value in assay [3] is listed as “**”.

B3: VA: E. coli TyrRS double variant: position 37 Valine, position 195 Alanine (protein, UniProt P0AGJ9 2-424, looked up, variant Y37V Q195A)
Tyrosine--tRNA ligase: B1 Tyrosine--tRNA ligase with S194A
Take B3: the “Aminoacylation activity, Tyrosine” value in assay [1] is reported as “*”. Further, in assay [2], the “Initial velocity … 3-iodotyrosine” value is on record as 6.6 nM PPi/min/nM enzyme and the “Initial velocity of release of pyrophosphates, Tyrosine” value amounted to 3.7 nM PPi/min/nM enzyme. Besides, the “Aminoacylation activity, 3-iodotyrosine” value in assay [3] was “**”.

B4: 37V: E. coli TyrRS variant: position 37 Valine, position 195 Glutamine (protein, UniProt P0AGJ9 2-424, looked up, variant Y37V)
Tyrosine--tRNA ligase: B1 Tyrosine--tRNA ligase with S194Q
For the molecule B4, the “Aminoacylation activity, Tyrosine” value in assay [1] and in assay [5] was “***” in each case. Also, the “Initial velocity … 3-iodotyrosine” value in assay [2] turned out to be 73 nM PPi/min/nM enzyme. Moreover, the “Initial velocity of release of pyrophosphates, Tyrosine” value in assay [2] was found to be 140 nM PPi/min/nM enzyme. The “Aminoacylation activity, 3-iodotyrosine” value in assay [4] and in assay [3] was “***” each time.

The values are drawn from patent US7393670B2, “Tyrosyl-tRNA synthetase variants” (Japan Science and Technology Agency, priority 2001, dated 2008).
